From the supplement of paper PMC5998384

Key:
[1] = system: HeLa Kyoto; assay: solubility in G1/S (NP-40 vs SDS abundance) (log2 ratio); higher = more soluble; conditions: cell cycle stage: G1/S
[2] = system: HeLa Kyoto; assay: solubility change mitosis vs G1/S (difference of NP-40 vs SDS log2 ratios) (log2 ratio difference); higher = more soluble in mitosis
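Throughout, for solubility change mitosis vs G1/S (difference of NP-40 vs SDS log2 ratios): synchronized HeLa Kyoto cells (double thymidine block for G1/S, nocodazole release for mitosis), protein amounts in NP-40 versus SDS lysates quantified by mass spectrometry, three biological replicates.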
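Throughout, for solubility in G1/S (NP-40 vs SDS abundance): HeLa Kyoto cells arrested at G1/S by double thymidine block, proteins quantified by TMT10plex mass spectrometry in mild NP-40 versus SDS extracts, three biological replicates.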

Substance | solubility in G1/S (log2) [1] | solubility change mitosis (log2) [2]
MIKCLSVEVQAKLRSGLAISSLGQCVEELALNSIDAEAKCVAVRVNMETFQVQVIDNGFGMGSDDVEKVGNRYFTSKCHSVQDLENPRFYGFRGEALANIADMASAVEISSKKNRTMKTFVKLFQSGKALKACEADVTRASAGTTVTVYNLFYQLPVRRKCMDPRLEFEKVRQRIEALSLMHPSISFSLRNDVSGSMVLQLPKTKDVCSRFCQIYGLGKSQKLREISFKYKEFELSGYISSEAHYNKNMQFLFVNKRLVLRTKLHKLIDFLLRKESIICKPKNGPTSRQMNSSLRHRSTPELYGIYVINVQCQFCEYDVCMEPAKTLIEFQNWDTLLFCIQEGVKMFLKQEKLFVELSGEDIKEFSEDNGFSLFDATLQKRVTSDERSNFQEACNNILDSYEMFNLQSKAVKRKTTAENVNTQSSRDSEATRKNTNDAFLYIYESGGPGHSKMTEPSLQNKDSSCSESKMLEQETIVASEAGENEKHKKSFLEHSSLENPCGTSLEMFLSPFQTPCHFEESGQDLEIWKESTTVNGMAANILKNNRIQNQPKRFKDATEVGCQPLPFATTLWGVHSAQTEKEKKKESSNCGRRNVFSYGRVKLCSTGFITHVVQNEKTKSTETEHSFKNYVRPGPTRAQETFGNRTRHSVETPDIKDLASTLSKESGQLPNKKNCRTNISYGLENEPTATYTMFSAFQEGSKKSQTDCILSDTSPSFPWYRHVSNDSRKTDKLIGFSKPIVRKKLSLSSQLGSLEKFKRQYGKVENPLDTEVEESNGVTTNLSLQVEPDILLKDKNRLENSDVCKITTMEHSDSDSSCQPASHILNSEKFPFSKDEDCLEQQMPSLRESPMTLKELSLFNRKPLDLEKSSESLASKLSRLKGSERETQTMGMMSRFNELPNSDSSRKDSKLCSVLTQDFCMLFNNKHEKTENGVIPTSDSATQDNSFNKNSKTHSNSNTTENCVISETPLVLPYNNSKVTGKDSDVLIRASEQQIGSLDSPSGMLMNPVEDATGDQNGICFQSEESKARACSETEESNTCCSDWQRHFDVALGRMVYVNKMTGLSTFIAPTEDIQAACTKDLTTVAVDVVLENGSQYRCQPFRSDLVLPFLPRARAERTVMRQDNRDTVDDTVSSESLQSLFSEWDNPVFARYPEVAVDVSSGQAESLAVKIHNILYPYRFTKGMIHSMQVLQQVDNKFIACLMSTKTEENGEAGGNLLVLVDQHAAHERIRLEQLIIDSYEKQQAQGSGRKKLLSSTLIPPLEITVTEEQRRLLWCYHKNLEDLGLEFVFPDTSDSLVLVGKVPLCFVEREANELRRGRSTVTKSIVEEFIREQLELLQTTGGIQGTLPLTVQKVLASQACHGAIKFNDGLSLQESCRLIEALSSCQLPFQCAHGRPSMLPLADIDHLEQEKQIKPNLTKLRKMAQAWRLFGKAECDTRQSLQQSMPPCEPP [MLH3] | -0.402 | 0.153
HELZ2 | -0.293 | -0.0125
MKQLPAATVRLLSSSQIITSVVSVVKELIENSLDAGATSVDVKLENYGFDKIEVRDNGEGIKAVDAPVMAMKYYTSKINSHEDLENLTTYGFRGEALGSICCIAEVLITTRTAADNFSTQYVLDGSGHILSQKPSHLGQGTTVTALRLFKNLPVRKQFYSTAKKCKDEIKKIQDLLMSFGILKPDLRIVFVHNKAVIWQKSRVSDHKMALMSVLGTAVMNNMESFQYHSEESQIYLSGFLPKCDADHSFTSLSTPERSFIFINSRPVHQKDILKLIRHHYNLKCLKESTRLYPVFFLKIDVPTADVDVNLTPDKSQVLLQNKESVLIALENLMTTCYGPLPSTNSYENNKTDVSAADIVLSKTAETDVLFNKVESSGKNYSNVDTSVIPFQNDMHNDESGKNTDDCLNHQISIGDFGYGHCSSEISNIDKNTKNAFQDISMSNVSWENSQTEYSKTCFISSVKHTQSENGNKDHIDESGENEEEAGLENSSEISADEWSRGNILKNSVGENIEPVKILVPEKSLPCKVSNNNYPIPEQMNLNEDSCNKKSNVIDNKSGKVTAYDLLSNRVIKKPMSASALFVQDHRPQFLIENPKTSLEDATLQIEELWKTLSEEEKLKYEEKATKDLERYNSQMKRAIEQESQMSLKDGRKKIKPTSAWNLAQKHKLKTSLSNQPKLDELLQSQIEKRRSQNIKMVQIPFSMKNLKINFKKQNKVDLEEKDEPCLIHNLRFPDAWLMTSKTEVMLLNPYRVEEALLFKRLLENHKLPAEPLEKPIMLTESLFNGSHYLDVLYKMTADDQRYSGSTYLSDPRLTANGFKIKLIPGVSITENYLEIEGMANCLPFYGVADLKEILNAILNRNAKEVYECRPRKVISYLEGEAVRLSRQLPMYLSKEDIQDIIYRMKHQFGNEIKECVHGRPFFHHLTYLPETT [PMS1] | -0.0908 | -0.108
MEDGVLKEGFLVKRGHIVHNWKARWFILRQNTLVYYKLEGGRRVTPPKGRILLDGCTITCPCLEYENRPLLIKLKTQTSTEYFLEACSREERDAWAFEITGAIHAGQPGKVQQLHSLRNSFKLPPHISLHRIVDKMHDSNTGIRSSPNMEQGSTYKKTFLGSSLVDWLISNSFTASRLEAVTLASMLMEENFLRPVGVRSMGAIRSGDLAEQFLDDSTALYTFAESYKKKISPKEEISLSTVELSGTVVKQGYLAKQGHKRKNWKVRRFVLRKDPAFLHYYDPSKEENRPVGGFSLRGSLVSALEDNGVPTGVKGNVQGNLFKVITKDDTHYYIQASSKAERAEWIEAIKKLT [PLEK2] | -0.00783 | -0.0462
MKLLSLVAVVGCLLVPPAEANKSSEDIRCKCICPPYRNISGHIYNQNVSQKDCNCLHVVEPMPVPGHDVEAYCLLCECRYEERSTTTIKVIIVIYLSVVGALLLYMAFLMLVDPLIRKPDAYTEQLHNEEENEDARSMAAAAASLGGPRANTVLERVEGAQQRWKLQVQEQRKTVFDRHKMLS [TMEM9] | 0.254 | 0.292
MHSSNPKVRSSPSGNTQSSPKSKQEVMVRPPTVMSPSGNPQLDSKFSNQGKQGGSASQSQPSPCDSKSGGHTPKALPGPGGSMGLKNGAGNGAKGKGKRERSISADSFDQRDPGTPNDDSDIKECNSADHIKSQDSQHTPHSMTPSNATAPRSSTPSHGQTTATEPTPAQKTPAKVVYVFSTEMANKAAEAVLKGQVETIVSFHIQNISNNKTERSTAPLNTQISALRNDPKPLPQQPPAPANQDQNSSQNTRLQPTPPIPAPAPKPAAPPRPLDRESPGVENKLIPSVGSPASSTPLPPDGTGPNSTPNNRAVTPVSQGSNSSSADPKAPPPPPVSSGEPPTLGENPDGLSQEQLEHRERSLQTLRDIQRMLFPDEKEFTGAQSGGPQQNPGVLDGPQKKPEGPIQAMMAQSQSLGKGPGPRTDVGAPFGPQGHRDVPFSPDEMVPPSMNSQSGTIGPDHLDHMTPEQIAWLKLQQEFYEEKRRKQEQVVVQQCSLQDMMVHQHGPRGVVRGPPPPYQMTPSEGWAPGGTEPFSDGINMPHSLPPRGMAPHPNMPGSQMRLPGFAGMINSEMEGPNVPNPASRPGLSGVSWPDDVPKIPDGRNFPPGQGIFSGPGRGERFPNPQGLSEEMFQQQLAEKQLGLPPGMAMEGIRPSMEMNRMIPGSQRHMEPGNNPIFPRIPVEGPLSPSRGDFPKGIPPQMGPGRELEFGMVPSGMKGDVNLNVNMGSNSQMIPQKMREAGAGPEEMLKLRPGGSDMLPAQQKMVPLPFGEHPQQEYGMGPRPFLPMSQGPGSNSGLRNLREPIGPDQRTNSRLSHMPPLPLNPSSNPTSLNTAPPVQRGLGRKPLDISVAGSQVHSPGINPLKSPTMHQVQSPMLGSPSGNLKSPQTPSQLAGMLAGPAAAASIKSPPVLGSAAASPVHLKSPSLPAPSPGWTSSPKPPLQSPGIPPNHKAPLTMASPAMLGNVESGGPPPPTASQPASVNIPGSLPSSTPYTMPPEPTLSQNPLSIMMSRMSKFAMPSSTPLYHDAIKTVASSDDDSPPARSPNLPSMNNMPGMGINTQNPRISGPNPVVPMPTLSPMGMTQPLSHSNQMPSPNAVGPNIPPHGVPMGPGLMSHNPIMGHGSQEPPMVPQGRMGFPQGFPPVQSPPQQVPFPHNGPSGGQGSFPGGMGFPGEGPLGRPSNLPQSSADAALCKPGGPGGPDSFTVLGNSMPSVFTDPDLQEVIRPGATGIPEFDLSRIIPSEKPSQTLQYFPRGEVPGRKQPQGPGPGFSHMQGMMGEQAPRMGLALPGMGGPGPVGTPDIPLGTAPSMPGHNPMRPPAFLQQGMMGPHHRMMSPAQSTMPGQPTLMSNPAAAVGMIPGKDRGPAGLYTHPGPVGSPGMMMSMQGMMGPQQNIMIPPQMRPRGMAADVGMGGFSQGPGNPGNMMF [BCL9] | 0.308 | 0.0803
